Reference: patent US20110059889A1 (SYNTONIX PHARMACEUTICALS, published 2011)
Where two headings read alike, the source gives them in different places. Bridge positions count the residues as written; N and C are the ends. Square brackets hold non-standard residues; d marks the D form. Ends that are not written are not given here. Pen = CC(C)(S)[C@H](N)C(=O)O

B1: Peptide No. 45 (peptide)
peptide: QRF[Pen]TGHFG[dY]LYPCNGP-NH2
modifications: disulfide 4-14; N-terminus assumed
SMILES: CC(C)C[C@@H]1NC(=O)[C@@H](Cc2ccc(O)cc2)NC(=O)CNC(=O)[C@H](Cc2ccccc2)NC(=O)[C@H](Cc2c[nH]cn2)NC(=O)CNC(=O)[C@H]([C@@H](C)O)NC(=O)[C@@H](NC(=O)[C@H](Cc2ccccc2)NC(=O)[C@H](CCCNC(=N)N)NC(=O)[C@@H](N)CCC(N)=O)C(C)(C)SSC[C@@H](C(=O)N[C@@H](CC(N)=O)C(=O)NCC(=O)N2CCC[C@H]2C(N)=O)NC(=O)[C@@H]2CCCN2C(=O)[C@H](Cc2ccc(O)cc2)NC1=O
B2: Peptide No. 48 (peptide)
peptide: QRF[Pen]TGHF[dP]GLYPCNGP-NH2
modifications: disulfide 4-14; N-terminus assumed
SMILES: CC(C)C[C@@H]1NC(=O)CNC(=O)[C@H]2CCCN2C(=O)[C@H](Cc2ccccc2)NC(=O)[C@H](Cc2c[nH]cn2)NC(=O)CNC(=O)[C@H]([C@@H](C)O)NC(=O)[C@@H](NC(=O)[C@H](Cc2ccccc2)NC(=O)[C@H](CCCNC(=N)N)NC(=O)[C@@H](N)CCC(N)=O)C(C)(C)SSC[C@@H](C(=O)N[C@@H](CC(N)=O)C(=O)NCC(=O)N2CCC[C@H]2C(N)=O)NC(=O)[C@@H]2CCCN2C(=O)[C@H](Cc2ccc(O)cc2)NC1=O
B3: Peptide No. 49 (peptide)
peptide: QRF[Pen]TGHF[dR]GLYPCNGP-NH2
modifications: disulfide 4-14; N-terminus assumed
SMILES: CC(C)C[C@@H]1NC(=O)CNC(=O)[C@@H](CCCNC(=N)N)NC(=O)[C@H](Cc2ccccc2)NC(=O)[C@H](Cc2c[nH]cn2)NC(=O)CNC(=O)[C@H]([C@@H](C)O)NC(=O)[C@@H](NC(=O)[C@H](Cc2ccccc2)NC(=O)[C@H](CCCNC(=N)N)NC(=O)[C@@H](N)CCC(N)=O)C(C)(C)SSC[C@@H](C(=O)N[C@@H](CC(N)=O)C(=O)NCC(=O)N2CCC[C@H]2C(N)=O)NC(=O)[C@@H]2CCCN2C(=O)[C@H](Cc2ccc(O)cc2)NC1=O
B4: Peptide No. 50 (peptide)
peptide: QRF[Pen]TGHF[dH]GLYPCNGP-NH2
modifications: disulfide 4-14; N-terminus assumed
SMILES: CC(C)C[C@@H]1NC(=O)CNC(=O)[C@@H](Cc2c[nH]cn2)NC(=O)[C@H](Cc2ccccc2)NC(=O)[C@H](Cc2c[nH]cn2)NC(=O)CNC(=O)[C@H]([C@@H](C)O)NC(=O)[C@@H](NC(=O)[C@H](Cc2ccccc2)NC(=O)[C@H](CCCNC(=N)N)NC(=O)[C@@H](N)CCC(N)=O)C(C)(C)SSC[C@@H](C(=O)N[C@@H](CC(N)=O)C(=O)NCC(=O)N2CCC[C@H]2C(N)=O)NC(=O)[C@@H]2CCCN2C(=O)[C@H](Cc2ccc(O)cc2)NC1=O
B5: Peptide No. 52 (peptide)
peptide: QRF[Pen]TGHF[dF]GLYPCNGP-NH2
modifications: disulfide 4-14; N-terminus assumed
SMILES: CC(C)C[C@@H]1NC(=O)CNC(=O)[C@@H](Cc2ccccc2)NC(=O)[C@H](Cc2ccccc2)NC(=O)[C@H](Cc2c[nH]cn2)NC(=O)CNC(=O)[C@H]([C@@H](C)O)NC(=O)[C@@H](NC(=O)[C@H](Cc2ccccc2)NC(=O)[C@H](CCCNC(=N)N)NC(=O)[C@@H](N)CCC(N)=O)C(C)(C)SSC[C@@H](C(=O)N[C@@H](CC(N)=O)C(=O)NCC(=O)N2CCC[C@H]2C(N)=O)NC(=O)[C@@H]2CCCN2C(=O)[C@H](Cc2ccc(O)cc2)NC1=O
B6: Peptide No. 148 (peptide)
peptide: QRF[Pen]TGHF[dA][dA]LYPCNGP-NH2
modifications: disulfide 4-14; N-terminus assumed
SMILES: CC(C)C[C@@H]1NC(=O)[C@@H](C)NC(=O)[C@@H](C)NC(=O)[C@H](Cc2ccccc2)NC(=O)[C@H](Cc2c[nH]cn2)NC(=O)CNC(=O)[C@H]([C@@H](C)O)NC(=O)[C@@H](NC(=O)[C@H](Cc2ccccc2)NC(=O)[C@H](CCCNC(=N)N)NC(=O)[C@@H](N)CCC(N)=O)C(C)(C)SSC[C@@H](C(=O)N[C@@H](CC(N)=O)C(=O)NCC(=O)N2CCC[C@H]2C(N)=O)NC(=O)[C@@H]2CCCN2C(=O)[C@H](Cc2ccc(O)cc2)NC1=O
B7: Peptide No. 150 (peptide)
peptide: QRF[Pen]TGHF[dF][dP]LYPCNGP-NH2
modifications: disulfide 4-14; N-terminus assumed
SMILES: CC(C)C[C@@H]1NC(=O)[C@H]2CCCN2C(=O)[C@@H](Cc2ccccc2)NC(=O)[C@H](Cc2ccccc2)NC(=O)[C@H](Cc2c[nH]cn2)NC(=O)CNC(=O)[C@H]([C@@H](C)O)NC(=O)[C@@H](NC(=O)[C@H](Cc2ccccc2)NC(=O)[C@H](CCCNC(=N)N)NC(=O)[C@@H](N)CCC(N)=O)C(C)(C)SSC[C@@H](C(=O)N[C@@H](CC(N)=O)C(=O)NCC(=O)N2CCC[C@H]2C(N)=O)NC(=O)[C@@H]2CCCN2C(=O)[C@H](Cc2ccc(O)cc2)NC1=O
B8: Peptide No. 152 (peptide)
peptide: QRF[Pen]TGHF[dP][dP]LYPCNGP-NH2
modifications: disulfide 4-14; N-terminus assumed
SMILES: CC(C)C[C@@H]1NC(=O)[C@H]2CCCN2C(=O)[C@H]2CCCN2C(=O)[C@H](Cc2ccccc2)NC(=O)[C@H](Cc2c[nH]cn2)NC(=O)CNC(=O)[C@H]([C@@H](C)O)NC(=O)[C@@H](NC(=O)[C@H](Cc2ccccc2)NC(=O)[C@H](CCCNC(=N)N)NC(=O)[C@@H](N)CCC(N)=O)C(C)(C)SSC[C@@H](C(=O)N[C@@H](CC(N)=O)C(=O)NCC(=O)N2CCC[C@H]2C(N)=O)NC(=O)[C@@H]2CCCN2C(=O)[C@H](Cc2ccc(O)cc2)NC1=O
B9: Peptide No. 203 (peptide)
peptide: QRF[Pen]TGHF[dF]PLYPCNGP-NH2
modifications: disulfide 4-14; N-terminus assumed
SMILES: CC(C)C[C@@H]1NC(=O)[C@@H]2CCCN2C(=O)[C@@H](Cc2ccccc2)NC(=O)[C@H](Cc2ccccc2)NC(=O)[C@H](Cc2c[nH]cn2)NC(=O)CNC(=O)[C@H]([C@@H](C)O)NC(=O)[C@@H](NC(=O)[C@H](Cc2ccccc2)NC(=O)[C@H](CCCNC(=N)N)NC(=O)[C@@H](N)CCC(N)=O)C(C)(C)SSC[C@@H](C(=O)N[C@@H](CC(N)=O)C(=O)NCC(=O)N2CCC[C@H]2C(N)=O)NC(=O)[C@@H]2CCCN2C(=O)[C@H](Cc2ccc(O)cc2)NC1=O
B10: Peptide No. 269 (peptide)
peptide: RFCTGXFGGLYPC
modifications: Pen 3; Thz(Me) 6 (N-methyl-thiazolium); Sar 9; NMeL 10; disulfide 3-13; C-terminal CONH2
B11: Peptide No. 271 (peptide)
peptide: RFCTGXFGGLYPC
modifications: Pen 3; triazolylAla 6 (1,2,3-triazole side chain); Sar 9; NMeL 10; disulfide 3-13; C-terminal amide

Assays:
[1] = target: T1, soluble human FcRn (shFcRn) (human, UniProt P55899 24-297; P61769 21-119); experiment: SPR pH 6
T1 construct: Biotinylated for the ELISA, amine-coupled to a CM5 chip for SPR; also called biotinylated shFcRn

[2] = target: T1, soluble human FcRn (shFcRn); experiment: IgG competition ELISA
Experimental: (§1) The wells were coated with 100 μl/well of 1 μg/ml biotinylated-shFcRn in Buffer A. The plate was sealed and incubated at 37° C. for 2 hours. Afterwards, the plate was washed with 200 μl/well of Buffer B (Buffer B: 100 mM MES pH 6, 150 mM NaCl, 0.5% BSA IgG-free (Jackson ImmunoResearch, West Grove, Pa.), 0.05% Tween-20). […] To allow for mixing, the plate was rocked for 2 minutes, sealed and incubated at 37° C. for 2 hours. […] The plate was covered, incubated for 30 minutes at room temperature and washed 4 times with 200 μl/well of ice-cold buffer B. SureBlue TMB substrate solution (100 μl/well, KPL, Gaithersburg, Md.) was added and the plate was allowed to incubate at room temperature until color developed, which took 5 to 10 minutes. Once color developed, 100 μl/well of TMB stop solution (KPL, Gaithersburg, Md.) was added and the absorbance was measured at 450 nm. The data was plotted as absorbance vs. peptide concentration to derive the inhibitory concentration 50% (IC₅₀) values.

[3] = target: T1, soluble human FcRn (shFcRn); experiment: IgG competition ELISA; remark: listed apart in the source
Experimental: as §1

T1 sequence (P55899 24-297 limits assumed, chain 1 of 2): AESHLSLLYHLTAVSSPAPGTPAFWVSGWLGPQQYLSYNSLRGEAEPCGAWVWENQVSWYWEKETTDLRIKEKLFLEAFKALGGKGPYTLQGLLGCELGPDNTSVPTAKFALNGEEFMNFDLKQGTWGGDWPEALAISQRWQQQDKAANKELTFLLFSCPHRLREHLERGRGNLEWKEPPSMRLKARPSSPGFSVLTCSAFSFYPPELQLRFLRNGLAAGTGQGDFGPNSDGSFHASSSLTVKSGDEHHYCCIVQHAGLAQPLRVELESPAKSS
T1 sequence (P61769 21-119 limits assumed, chain 2 of 2): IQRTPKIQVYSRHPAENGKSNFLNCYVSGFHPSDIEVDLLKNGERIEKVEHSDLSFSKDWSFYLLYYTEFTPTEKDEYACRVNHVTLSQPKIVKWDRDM

| Binder | Kd [1] [µM] | IC50 [2] [µM] | IC50 [3] [µM] |
| --- | --- | --- | --- |
| B1 | 1.5 | – | – |
| B2 | – | 5 | – |
| B3 | – | 4.1 | – |
| B4 | – | 3.6 | – |
| B5 | 0.51 | 2.8 | – |
| B6 | 0.45 | – | – |
| B7 | 0.72 | 5.9 | – |
| B8 | – | 21 | – |
| B9 | 3.8 | – | – |
| QRFCTGXFGGLYPCNGP (Pen 4; Thz 7; disulfide 4-14; C-terminal amide) [Peptide No. 91] | – | – | 44 |
| RFCTGXFGGLYPC (Pen 3; PropargylGly 6; Sar 9; NMeLeu 10; disulfide 3-13; C-terminal amide) [Peptide No. 261] | – | – | 160 |
| B10 | – | – | 2.4 |
| B11 | – | – | 5.7 |
